Data: publication PMC5934625, “A structurally conserved motif in γ-herpesvirus uracil-DNA glycosylases elicits duplex nucleotide-flipping”

Molecular target: T1, kUNG (kUNGΔ18), uracil-DNA glycosylase (Kaposi's sarcoma-associated herpesvirus …, UniProt F5HFA1 19-255)
T1 sequence: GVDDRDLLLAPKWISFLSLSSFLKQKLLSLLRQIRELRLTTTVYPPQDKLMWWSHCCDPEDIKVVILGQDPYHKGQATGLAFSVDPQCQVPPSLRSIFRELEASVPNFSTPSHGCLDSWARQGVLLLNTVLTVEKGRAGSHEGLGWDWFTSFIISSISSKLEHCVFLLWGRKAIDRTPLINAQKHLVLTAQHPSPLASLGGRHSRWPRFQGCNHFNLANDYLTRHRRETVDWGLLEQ
Experiment: X-ray crystallography; product complex after uracil cleavage; 100 mM Mg acetate in crystallisation; Crystallisation: protein:DNA 1:1.2, annealing buffer 20 mM Tris-HCl pH 7.4, 100 mM NaCl, 20 mM MgCl2; crystals in 100 mM sodium acetate pH 4.5, 100 mM Mg acetate, 8% PEG 8000, 16 °C. Km/Vmax of mutants (Table 3) are turnover only and left out.
Settings: protein: recombinant; tags: N-terminal 6xHis-TEV cleaved; Ser-Ala-Ser remains; label: 5'-FAM on strand 1; 5' overhang 1 nt (strand 1); U:A pair

B1: 5'FAM-idu_2 duplex (dsDNA)
DNA 1: AAAGATAACATT
DNA 2: AATGTUATCTT
modifications: dU at position 6 of strand 2; converted to abasic site (beta-anomer deoxyribose) in the product complex, no density for uracil
B1: binds.
